Values quoted from earlier work as cited in article PMC9464622, “The collectin SP-A and its trimeric recombinant fragment protect alveolar epithelial cells from the cytotoxic and proinflammatory effects of human cathelicidin in vitro” (Frontiers in Immunology, 2022).

Tested on: LL-37 and β-defensin 3
Text: The host appears to protect its own cells from LL-37 cytotoxicity by several mechanisms. […] In addition, the C1q globular head receptor (gC1qR, also known as p33) protects ...

B1: p33: negatively charged protein expressed on the surface of various cell types (protein, UniProt Q07021 74-282, looked up)
Complement component 1 Q …: LHTDGDKAFVDFLSDEIKEERKIQKHKTLPKMSGGWELELNGTEAKLVRKVAGEKITVTFNINNSIPPTFDGEEEPSQGQKVEEQEPELTSTPNFVVEVIKNDDGKKALVLDCHYPEDEVGQEDEAESDIFSIREVSFQSTGESEWKDTNYTLNTDSLDWALYDHLMDFLADRGVDNTFADELVELSTALEHQEYITFLEDLKSFVKSQ
binding of LL-37 and β-defensin 3: binds LL-37 and β-defensin 3 with high affinity
